This passage reports stoichiometry N results from PMC7978432.

Broadly, the stoichiometry N is the number of molecules, sites or subunits per partner or assembly.

In test [1] the target is SARS-CoV-2 RBD-5GS-1TD0 (SARS-CoV-2 | not stated) (UniProt P0DTC2). The test can be described thus: SDS-PAGE.
Test [2] shares this target. The experiment in a line: SEC.
For test [3], the target named is SARS-CoV-1 RBD-5GS-1TD0 (SARS-CoV-1 | not stated). The experiment in a line: SDS-PAGE.

With “SARS-CoV-2 RBD-5GS-1TD0 (from UniProt P0DTC2 330-532)”, the stoichiometry N in test [1] and in test [2] was 3 each time.

SARS-CoV-1 RBD-5GS-1TD0 had a stoichiometry N in test [3] of 3.
